Reference: patent US20220042033A1, “COMPOSITION AND METHOD FOR CONFERRING AND/OR ENHANCING TOLERANCE AGAINST HERBICIDES BY USING VARIANTS OF PPO” (FarmHannong Co., Ltd., priority 2017, published 2022)
Numbering of substitutions follows the chain as printed. Names and notes keep the numbering of the source.

B1: I311M + L332T + M365V: MxPPO (SEQ ID NO: 3) variant (protein)
chain: MHHMPRTTGMNVAVVGGGISGLAVAHHLRSRGTDAVLLESSARLGGAVGTHALAGYLVEQGPNSFLDREPATRALAAALNLEGRIRAADPAAKRRYVYTRGRLRSVPASPPAFLASDILPLGARLRVAGELFSRRAPEGVDESLAAFGRRHLGHRATQVLLDAVQTGIYAGDVEQLSVAATFPMLVKMEREHRSLILGAIRAQKAQRQAALPAGTAPKLSGALSTFDGGLQVLIDALAASLGDAAHVGARVEGLAREDGGWRLIIEEHGRRAELSVAQVVLAAPAHATAKLLRPLDDALAALVAGIAYAPMAVVHLGFDAGTLPAPDGFGFTVPAEEQRRMLGAIHASTTFPFRAEGGRVLYSCVVGGARQPGLVEQDEDALAALAREELKALAGVTARPSFTRVFRWPLGIPQYNLGHLERVAAIDAALQRLPGLHLIGNAYKGVGLNDCIRNAAQLADALVAGNTSHAP
modifications: Synthetic (Protoporphyrinogen IX oxidase (MxPPO) of Myxococcus xanthus)
B2: R95A + A170C + L332T + M365I: MxPPO (SEQ ID NO: 3) variant (protein)
chain: B1 chain with R95A, A170C, M311I, V365I
modifications: Synthetic (Protoporphyrinogen IX oxidase (MxPPO) of Myxococcus xanthus)
B3: R95A + I168C + A170C + I311M + M365V: MxPPO (SEQ ID NO: 3) variant (protein)
chain: B1 chain with R95A, I168C, A170C, T332L
modifications: Synthetic (Protoporphyrinogen IX oxidase (MxPPO) of Myxococcus xanthus)
B4: I168C + M365I: MxPPO (SEQ ID NO: 3) variant (protein)
chain: B1 chain with I168C, M311I, T332L, V365I
modifications: Synthetic (Protoporphyrinogen IX oxidase (MxPPO) of Myxococcus xanthus)
B5: R95A + I168C + A170C + L332T + M365I: MxPPO (SEQ ID NO: 3) variant (protein)
chain: B1 chain with R95A, I168C, A170C, M311I, V365I
modifications: Synthetic (Protoporphyrinogen IX oxidase (MxPPO) of Myxococcus xanthus)
B6: I168C + A170C + I311M + L332T + M365V: MxPPO (SEQ ID NO: 3) variant (protein)
chain: B1 chain with I168C, A170C
modifications: Synthetic (Protoporphyrinogen IX oxidase (MxPPO) of Myxococcus xanthus)
B7: I168C + A170C + I311M + M365I: MxPPO (SEQ ID NO: 3) variant (protein)
chain: B1 chain with I168C, A170C, T332L, V365I
modifications: Synthetic (Protoporphyrinogen IX oxidase (MxPPO) of Myxococcus xanthus)
B8: I168C + A170C + L332T + M365V: MxPPO (SEQ ID NO: 3) variant (protein)
chain: B1 chain with I168C, A170C, M311I
modifications: Synthetic (Protoporphyrinogen IX oxidase (MxPPO) of Myxococcus xanthus)
B9: R95A + I168C + I311M + L332T + M365V: MxPPO (SEQ ID NO: 3) variant (protein)
chain: B1 chain with R95A, I168C
modifications: Synthetic (Protoporphyrinogen IX oxidase (MxPPO) of Myxococcus xanthus)
B10: I168C + M365V: MxPPO (SEQ ID NO: 3) variant (protein)
chain: B1 chain with I168C, M311I, T332L
modifications: Synthetic (Protoporphyrinogen IX oxidase (MxPPO) of Myxococcus xanthus)
B11: A170C + I311M + L332T + M365I: MxPPO (SEQ ID NO: 3) variant (protein)
chain: B1 chain with A170C, V365I
modifications: Synthetic (Protoporphyrinogen IX oxidase (MxPPO) of Myxococcus xanthus)
B12: R95A + I168C + A170C + I311M + L332T + M365V: MxPPO (SEQ ID NO: 3) variant (protein)
chain: B1 chain with R95A, I168C, A170C
modifications: Synthetic (Protoporphyrinogen IX oxidase (MxPPO) of Myxococcus xanthus)

Columns and labels:
[1] = tested on: MxPPO; assay: PPO enzyme activity of purified MBP-fused MxPPO wild type and variants; assay type: biochemical, Myxococcus xanthus; settings: PPO enzyme activity of purified MxPPO protein, relative to wild type
[2] = tested on: MxPPO; assay: Herbicide tolerance test of MxPPO wild type and variants in PPO-deficient E. coli BT3(ΔPPO), growth on herbicide-containing LB agar; assay type: cell-based, Myxococcus xanthus; settings: relative to MxPPO WT
Description: Then, the extent of tolerance was evaluated.

[3] = light, up to 400 μM (FIGS. 15-17)
[4] = light, up to 1000 μM (FIGS. 18-20)
[5] = dark, up to 1000 μM (FIGS. 21-22)
[6] = dark, up to 4000 μM (FIGS. 23-24)

Row | Molecule | Activity (%) [1] [%] | Herbicide tolerance, tiafenacil ([2]; light, 2000 μM (FIG. 14)) | Herbicide tolerance, flumioxazin [2, 3] | Herbicide tolerance, sulfentrazone [2, 4] | Herbicide tolerance, flumioxazin [2, 5] | Herbicide tolerance, sulfentrazone [2, 6]
1 | B1 | 55 | + (1-9 fold higher tolerance) | +++ (100-999 fold higher tolerance) | ++ (10-99 fold higher tolerance) | – | –
2 | B2 | 35 | – | – | – | + (1-9 fold higher tolerance) | +++ (100-999 fold higher tolerance)
3 | B3 | 17 | – | – | – | + (1-9 fold higher tolerance) | +++ (100-999 fold higher tolerance)
4 | B4 | 45 | – | + (1-9 fold higher tolerance) | + (1-9 fold higher tolerance) | – | –
5 | B5 | 18 | – | – | – | + (1-9 fold higher tolerance) | +++ (100-999 fold higher tolerance)
6 | B6 | 20 | – | – | – | + (1-9 fold higher tolerance) | ++ (10-99 fold higher tolerance)
7 | B7 | 44 | – | – | – | + (1-9 fold higher tolerance) | + (1-9 fold higher tolerance)
8 | B8 | 40 | – | – | – | + (1-9 fold higher tolerance) | ++ (10-99 fold higher tolerance)
9 | B9 | 12 | – | – | – | + (1-9 fold higher tolerance) | +++ (100-999 fold higher tolerance)
10 | B10 | 42 | – | + (1-9 fold higher tolerance) | + (1-9 fold higher tolerance) | – | –
11 | B11 | 52 | – | – | – | + (1-9 fold higher tolerance) | –
12 | B12 | 8 | – | – | – | + (1-9 fold higher tolerance) | +++ (100-999 fold higher tolerance)
